B1: EZ-28: Bpu-link1-HC263-H6, SEQ ID NO: 452 (protein)
chain: MQLFDLSLEELKKYKPKKTARPDFSDFWKKSLEELRQVEAEPTLESYDYPVKGVKVYRLTYQSFGHSKIEGFYAVPDQTGPHPALVRFHGYNASYDGGIHDIVNWALHGYATFGMLVRGQGGSEDTSVTPGGHALGWMTKGILSKDTYYYRGVYLDAVRALEVIQSFPEVDEHRIGVIGGSQGGALAIAAAALSDIPKVVVADYPYLSNFERAVDVALEQPYLEINSYFRRNSDPKVEEKAFETLSYFDLINLAGWVKQPTLMAIGLIDKITPPSTVFAAYNHLETDKDLKVYRYFGHEFIPAFQTEKLSFLQKHLLLSTGPGSGGAGSPGSAGGPGSPSAQSQLPDKHSGLHERAPQRYGPEPEPEPEPIPEPPKEAPVVIEKPKPKPKPKPKPPAHDHKNQKETHQRHAAGSGGGGSPHHHHHH
B2: EZ-34: Lla-link1-HC263-H6, SEQ ID NO: 458 (protein)
chain: MTKINNWQDYQGSSLKPEDFDKFWDEKINLVSNHQFEFELIEKNLSSKVVNFYHLWFTAIDGAKIHAQLIVPKNLKEKYPAILQFHGYHCDSGDWVDKIGIVAEGNVVLALDCRGQGGLSQDNIQTMGMTMKGLIVRGIDEGYENLYYVRQFMDLITATKILSEFDFVDETNISAQGASQGGALAVACAALSPLIKKVTATYPFLSDYRKAYELGAEESAFEELPYWFQFKDPLHLREDWFFNQLEYIDIQNLAPRIKAEVIWILGGKDTVVPPITQMAAYNKIQSKKSLYVLPEYGHEYLPKISDWLRENQGPGSGGAGSPGSAGGPGSPSAQSQLPDKHSGLHERAPQRYGPEPEPEPEPIPEPPKEAPVVIEKPKPKPKPKPKPPAHDHKNQKETHQRHAAGSGGGGSPHHHHHH
B3: EZ-29: Bpu-link1-DenP308-H6, SEQ ID NO: 453 (protein)
chain: MQLFDLSLEELKKYKPKKTARPDFSDFWKKSLEELRQVEAEPTLESYDYPVKGVKVYRLTYQSFGHSKIEGFYAVPDQTGPHPALVRFHGYNASYDGGIHDIVNWALHGYATFGMLVRGQGGSEDTSVTPGGHALGWMTKGILSKDTYYYRGVYLDAVRALEVIQSFPEVDEHRIGVIGGSQGGALAIAAAALSDIPKVVVADYPYLSNFERAVDVALEQPYLEINSYFRRNSDPKVEEKAFETLSYFDLINLAGWVKQPTLMAIGLIDKITPPSTVFAAYNHLETDKDLKVYRYFGHEFIPAFQTEKLSFLQKHLLLSTGPGSGGAGSPGSAGGPGSDPTKPPRTPTANTSRPHHNFGSGGGGSPHHHHHH
B4: EZ-27: Bpu-link1-H6, SEQ ID NO: 451 (protein)
chain: MQLFDLSLEELKKYKPKKTARPDFSDFWKKSLEELRQVEAEPTLESYDYPVKGVKVYRLTYQSFGHSKIEGFYAVPDQTGPHPALVRFHGYNASYDGGIHDIVNWALHGYATFGMLVRGQGGSEDTSVTPGGHALGWMTKGILSKDTYYYRGVYLDAVRALEVIQSFPEVDEHRIGVIGGSQGGALAIAAAALSDIPKVVVADYPYLSNFERAVDVALEQPYLEINSYFRRNSDPKVEEKAFETLSYFDLINLAGWVKQPTLMAIGLIDKITPPSTVFAAYNHLETDKDLKVYRYFGHEFIPAFQTEKLSFLQKHLLLSTGPGSGGAGSPGSAGGPGSHHHHHH
B5: EZ-33: Lla-link1-H6, SEQ ID NO: 457 (protein)
chain: MTKINNWQDYQGSSLKPEDFDKFWDEKINLVSNHQFEFELIEKNLSSKVVNFYHLWFTAIDGAKIHAQLIVPKNLKEKYPAILQFHGYHCDSGDWVDKIGIVAEGNVVLALDCRGQGGLSQDNIQTMGMTMKGLIVRGIDEGYENLYYVRQFMDLITATKILSEFDFVDETNISAQGASQGGALAVACAALSPLIKKVTATYPFLSDYRKAYELGAEESAFEELPYWFQFKDPLHLREDWFFNQLEYIDIQNLAPRIKAEVIWILGGKDTVVPPITQMAAYNKIQSKKSLYVLPEYGHEYLPKISDWLRENQGPGSGGAGSPGSAGGPGSHHHHHH
B6: EZ-31: Mlo-link1-HC263-H6, SEQ ID NO: 455 (protein)
chain: MPFPDLIQPELGAYVSSVGMPDDFAQFWTSTIAEARQAGGEVSIVQAQTTLKAVQSFDVTFPGYGGHPIKGWLILPTHHKGRLPLVVQYIGYGGGRGLAHEQLHWAASGFAYFRMDTRGQGSDWSVGETADPVGSTSSIPGFMTRGVLDKNDYYYRRLFTDAVRAIDALLGLDFVDPERIAVCGDSQGGGISLAVGGIDPRVKAVMPDVPFLCDFPRAVQTAVRDPYLEIVRFLAQHREKKAAVFETLNYFDCVNFARRSKAPALFSVALMDEVCPPSTVYGAFNAYAGEKTITEYEFNNHEGGQGYQERQQMTWLSRLFGVGGPGSGGAGSPGSAGGPGSPSAQSQLPDKHSGLHERAPQRYGPEPEPEPEPIPEPPKEAPVVIEKPKPKPKPKPKPPAHDHKNQKETHQRHAAGSGGGGSPHHHHHH
B7: EZ-35: Lla-link1-DenP308-H6, SEQ ID NO: 459 (protein)
chain: MTKINNWQDYQGSSLKPEDFDKFWDEKINLVSNHQFEFELIEKNLSSKVVNFYHLWFTAIDGAKIHAQLIVPKNLKEKYPAILQFHGYHCDSGDWVDKIGIVAEGNVVLALDCRGQGGLSQDNIQTMGMTMKGLIVRGIDEGYENLYYVRQFMDLITATKILSEFDFVDETNISAQGASQGGALAVACAALSPLIKKVTATYPFLSDYRKAYELGAEESAFEELPYWFQFKDPLHLREDWFFNQLEYIDIQNLAPRIKAEVIWILGGKDTVVPPITQMAAYNKIQSKKSLYVLPEYGHEYLPKISDWLRENQGPGSGGAGSPGSAGGPGSDPTKPPRTPTANTSRPHHNFGSGGGGSPHHHHH
B8: EZ-32: Mlo-link1-DenP308-H6, SEQ ID NO: 456 (protein)
chain: MPFPDLIQPELGAYVSSVGMPDDFAQFWTSTIAEARQAGGEVSIVQAQTTLKAVQSFDVTFPGYGGHPIKGWLILPTHHKGRLPLVVQYIGYGGGRGLAHEQLHWAASGFAYFRMDTRGQGSDWSVGETADPVGSTSSIPGFMTRGVLDKNDYYYRRLFTDAVRAIDALLGLDFVDPERIAVCGDSQGGGISLAVGGIDPRVKAVMPDVPFLCDFPRAVQTAVRDPYLEIVRFLAQHREKKAAVFETLNYFDCVNFARRSKAPALFSVALMDEVCPPSTVYGAFNAYAGEKTITEYEFNNHEGGQGYQERQQMTWLSRLFGVGGPGSGGAGSPGSAGGPGSDPTKPPRTPTANTSRPHHNFGSGGGGSPHHHHHH
B9: EZ-30: Mlo-link1-H6, SEQ ID NO: 454 (protein)
chain: MPFPDLIQPELGAYVSSVGMPDDFAQFWTSTIAEARQAGGEVSIVQAQTTLKAVQSFDVTFPGYGGHPIKGWLILPTHHKGRLPLVVQYIGYGGGRGLAHEQLHWAASGFAYFRMDTRGQGSDWSVGETADPVGSTSSIPGFMTRGVLDKNDYYYRRLFTDAVRAIDALLGLDFVDPERIAVCGDSQGGGISLAVGGIDPRVKAVMPDVPFLCDFPRAVQTAVRDPYLEIVRFLAQHREKKAAVFETLNYFDCVNFARRSKAPALFSVALMDEVCPPSTVYGAFNAYAGEKTITEYEFNNHEGGQGYQERQQMTWLSRLFGVGGPGSGGAGSPGSAGGPGSHHHHHH

Legend:
[1] = Peracetic acid generated in solution by CE-7 perhydrolase fusions (Example 8); assay type: biochemical; details: 0.5 μM enzyme, 100 mM triacetin, 100 mM H2O2, pH 7.2, 10 min, 37° C.; no enzyme 378.9
Procedure: (§1) The detection of peracetic acid followed the method described in Pinkernell et. al. (Analyst, 1997, 122, 567) using colorimetric detection of 2,2′-azino-bis(3-ethylbenzothiazoline(-6-sulfonate (ABTS) oxidation by peracetic acid. Following the formation of peracetic acid with the addition of triacetin and hydrogen peroxide, 90 μL of solution was added to 10 μL of 0.1 M H3PO4 in a well plate. 50 μL of 1 M acetic acid, 50 μL of 0.5 g/L ABTS and 50 μL of 0.002 g/L of KI was added. The solution was allowed to develop for 5 min. The absorbance of the solution was measured at 405 nm using a microplate reader. The peracetic acid concentration was calculated based on a standard curve developed simultaneously using peracetic acid reagent solution.
Perhydrolase enzymes listed in Table 6 were assessed for solution activities. The method to measure the perhydrolase in solution activity was described in Example 7 by making a 500 μL solution containing 0.5 μM of enzyme, 100 mM triacetin, 100 mM H2O2 in 100 mM phosphate buffer, pH 7.2. The solution was mixed and incubated for 10 min at 37° C. A 10 μL aliquot was removed and diluted for detection as described in Example 7. Peracetic acid concentration was determined using a standard curve generated with a stock solution of peracetic acid (Aldrich). The experiment was also performed with no enzyme present as a control.

[2] = Peracetic acid generation from hydroxyapatite bound CE-7 perhydrolase fusions (Example 8); assay type: biochemical; details: for Peracetic acid (ppm): hydroxyapatite particles exposed to 10 μM enzyme, washed, 100 mM triacetin, 100 mM H2O2, 30 min, 37° C., no enzyme 30-118.8
Procedure: as §1
To assess binding of these constructs to hydroxyapatite, 33 mg of hydroxyapatite particles (Macro-prep Ceramic Hydroxyapatite TYPE I, 80 μm size BioRad, Hercules, Calif.), were washed with 10 mM phosphate buffer at pH 7.2. After removing the supernatant, enzyme stock solution was added to the hydroxyapatite dispersion to a final concentration of 10 μM and incubated for 30 min in a microcentrifuge tube with gentle agitation. Each sample was centrifuged for 1 min at 10000 rpm. The supernatant was removed and additional buffer was added. The particles were resuspended and transferred to a new tube. The process was repeated two additional times. The hydroxyapatite bound enzyme activity was measured by adding a 500 μl solution containing 100 mM triacetin, 100 mM H2O2 in 100 mM phosphate buffer, pH 7.2. The solution was incubated for 30 min, at 37° C. An aliquot was removed and mixed with H3PO4 and properly diluted for detection via ABTS oxidation as described in Example 7. The experiments were performed at different day with no enzyme as control for each experiment.

Row | Molecule | PAA (ppm) [1] | Peracetic acid (ppm) [2] | activity after binding to hydroxyapatite (in words) ([2]; targeted vs untargeted B. pumilus fusion)
1 | B1 | 2512.7 ppm | 534.2 ppm | 
2 | B2 | 786 ppm | 242.2 ppm | 
3 | B3 | 2273.5 ppm | 1299.8 ppm | higher binding activity compared to the untargeted EZ-27
4 | B4 | 2332.9 ppm | 634.9 ppm | 
5 | B5 | 1062.5 ppm | 359.1 ppm | 
6 | B6 | 434.9 ppm | 241.4 ppm | 
7 | B7 | 998 ppm | 260 ppm | 
8 | B8 | 497.7 ppm | 419.3 ppm | 
9 | B9 | 468.8 ppm | 658.5 ppm | 

Source: US8663616B2, “Enzymatic peracid generation for use in oral care products” (E I du Pont de Nemours and Company, priority 2010, dated 2014)
